In article doi:10.1101/842088 one finds Kd data, which are given here for one molecule.

Common to all, as to assay: fluorescence polarization
One series has as its target NS3h WT (dengue virus 4, UniProt P09866 1646-2092).
Series [1] deals with T1, NS3h WT (T7 Shuffle) (dengue virus 4, UniProt P09866 1646-2092).
The target in series [2] is T1, NS3h WT (T7 Shuffle). The source holds these as a separate data set.

Like-named read-outs stand apart in the source and are kept apart here.

T1 sequence (P09866 1646-2092): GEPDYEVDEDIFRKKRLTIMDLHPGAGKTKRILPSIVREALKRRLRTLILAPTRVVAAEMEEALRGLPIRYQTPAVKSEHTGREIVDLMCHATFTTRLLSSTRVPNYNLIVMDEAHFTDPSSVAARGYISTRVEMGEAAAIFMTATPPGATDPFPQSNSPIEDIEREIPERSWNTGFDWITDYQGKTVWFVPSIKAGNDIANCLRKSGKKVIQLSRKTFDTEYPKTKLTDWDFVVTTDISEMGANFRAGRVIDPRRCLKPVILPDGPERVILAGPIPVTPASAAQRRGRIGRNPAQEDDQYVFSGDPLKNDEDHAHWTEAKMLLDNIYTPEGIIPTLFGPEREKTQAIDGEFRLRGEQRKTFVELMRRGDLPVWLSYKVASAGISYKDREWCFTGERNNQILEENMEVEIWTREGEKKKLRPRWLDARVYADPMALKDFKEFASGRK
NS3h WT, sequence (P09866 1646-2092): as above

For the molecule AGUAA (ssRNA, 5'-diphosphate (pp (so in the source))) [ppAGUAA Alexa-488 RNA oligo], the Kd with NS3h WT came out at 1.9 ± 0.8 µM; in the series with NS3h WT (T7 Shuffle) [1], 3.4 ± 1.4 µM; with NS3h WT (T7 Shuffle) [2], 4.5 ± 1.5 µM.
